{
  "source": "patent US20230190652A1",
  "about": "“COMPOSITION FOR THE TREATMENT OF COVID-19 AND TREATMENT METHOD” (priority 2020, published 2023)",
  "tested_on": "COVID-19",
  "assay": "Intubated hospitalized critically ill COVID-19 patients",
  "type": "in vivo, human",
  "details": "patients in a critical condition with cytokine storm",
  "data": [
    {"molecule": "lactoferrin (protein, UniProt P24627 20-708, looked up, bovine LF used) Lactotransferrin: APRKNVRWCTISQPEWFKCRRWQWRMKKLGAPSITCVRRAFALECIRAIAEKKADAVTLDGGMVFEAGRDPYKLRPVAAEIYGTKESPQTHYYAVAVVKKGSNFQLDQLQGRKSCHTGLGRSAGWIIPMGILRPYLSWTESLEPLQGAVAKFFSASCVPCIDRQAYPNLCQLCKGEGENQCACSSREPYFGYSGAFKCLQDGAGDVAFVKETTVFENLPEKADRDQYELLCLNNSRAPVDAFKECHLAQVPSHAVVARSVDGKEDLIWKLLSKAQEKFGKNKSRSFQLFGSPPGQRDLLFKDSALGFLRIPSKVDSALYLGSRYLTTLKNLRETAEEVKARYTRVVWCAVGPEEQKKCQQWSQQSGQNVTCATASTTDDCIVLVLKGEADALNLDGGYIYTAGKCGLVPVLAENRKSSKHSSLDCVLRPTEGYLAVAVVKKANEGLTWNSLKDKKSCHTAVDRTAGWNIPMGLIVNQTGSCAFDEFFSQSCAPGADPKSRLCALCAGDDQGLDKCVPNSKEKYYGYTGAFRCLAEDVGDVAFVKNDTVWENTNGESTADWAKNLNREDFRLLCLDGTRKPVTEAQSCHLAVAPNHAVVSRSDRAAHVKQVLLHQQALFGKNGKNCPDKFCLFKSETKNLLFNDNTECLAKLGGRPTYEEYLGTEYVTAIANLKKCSTSPLLEACAFLTR", "values": [
      {"measurement": "IL-6, TNF alpha, ferritin and DD2 parameters", "result": "normalizing or decreasing"}
    ]}
  ]
}
